Experimental data taken from publication PMC5653649, “Evolution of AF6-RAS association and its implications in mixed-lineage leukemia” (Nature Communications, 2017).

B1: AF6 αN-extended RA1 domain (residues 6–136) (domain or fragment, UniProt Q9QZQ1 6-136, looked up)
chain: RDEERRKLADIIHHWNANRLDLFEISQPTEDLEFHGVMRFYFQDKAAGNFATKCIRVSSTATTQDVIETLAEKFRPDMRMLSSPKYSLYEVHVSGERRLDIDEKPLVVQLNWNKDDREGRFVLKNENDAIP
notes: AF6/afadin αN helix and RA1 domain, residues 6-136; also called αN-RA1; αN/RA1; source: E. coli BL21, purified (glutathione resin, thrombin cleavage, size exclusion chromatography); not shown: GST, N-terminal, cleaved
B2: AF6 αN helix fragment (residues 6–36) (domain or fragment, UniProt Q9QZQ1 6-36, looked up)
chain: RDEERRKLADIIHHWNANRLDLFEISQPTED
notes: AF6/afadin residues 6-36 encompassing the αN helix (31 residues); also called AF6 6–36; αN helix alone; source: E. coli BL21, purified (glutathione resin, thrombin cleavage, size exclusion chromatography); not shown: GST, N-terminal, cleaved
B3: AF6 RA1 domain (residues 37–136) (domain or fragment, UniProt Q9QZQ1 37-136, looked up)
chain: LEFHGVMRFYFQDKAAGNFATKCIRVSSTATTQDVIETLAEKFRPDMRMLSSPKYSLYEVHVSGERRLDIDEKPLVVQLNWNKDDREGRFVLKNENDAIP
notes: AF6/afadin first RAS association (RA1) domain, residues 37-136; 15N-labelled for the NMR titration; The monomer fraction was used for crystallisation; also called core RA1 domain; core AF6 RA domain; source: E. coli BL21, purified (glutathione resin, thrombin cleavage, size exclusion chromatography); not shown: GST, N-terminal, cleaved
B4: BTBD18 (residues 97–134) fused upstream of the ARAF RBD domain (residues 17–94) (other, UniProt B2RXH4 97-134, looked up)
chain: EMEVSQEEAQDVLSAARQLRVSELESLQLEGGKLVKAPAVGTVKVYLPNKQRTVVTVRDGMSVYDSLDKALKVRGLNQDCCVVYRLIKGRKTVTAWDTAIAPLDGEELIVEVLEDV
notes: human BTBD18, Gene ID 643376, residues 97-134 (helix-turn-helix with a hydrophobic patch); source: E. coli BL21, purified (expressed from pGEX-4T2); not shown: GST, N-terminal, cleaved

Assays:
[1] = target: T1, H-RAS (residues 1–171), GMPPNP-loaded (human, UniProt P01112 1-171); experiment: ITC; Microcal VP-ITC; RA domains titrated into GMPPNP-loaded RAS; 20 mM Tris-HCl pH 7.5, 100 mM NaCl, 5 mM MgCl2, 1 mM DTT; 25 °C; settings: both partners purified
T1 construct: wild-type H-RAS, human cDNA, Gene ID 3265, residues 1-171; also called RAS-GMPPNP; source: E. coli BL21, purified (Ni-NTA, thrombin, size exclusion chromatography), loaded with GMPPNP; not shown: HIS tag, N-terminal, cleaved

[2] = target: B3; experiment: NMR titration; AF6 6–36 fragment titrated into 15N-AF6 RA1; 1H/15N-HSQC; 25 °C; 20 mM Tris-HCl pH 7.5, 100 mM NaCl, 1 mM DTT, 5 mM MgCl2, 10% D2O; settings: both partners purified
[3] = target: the molecule itself; experiment: SEC; size exclusion chromatography of the purified domain at several concentrations (S75 or S200 column)
[4] = target: the molecule itself; experiment: native gel or EMSA; blue native PAGE (BN–PAGE), 15% acrylamide; proteins purified by size exclusion chromatography and concentrated to 100–150 μM

Binder: B1
Kd [1]: 4.1 µM

Binder: B2
binding result [2]: binds

Binder: B3
stoichiometry N [3]: 2
Kd [1]: 17.8 µM

Binder: B4
stoichiometry N [4]: 2
